Values of other authors as cited in article PMC9346034.

Key:
Hsp70 (Homo sapiens) = Hsp70 (Homo sapiens) (UniProt P0DMV8)
DnaK (Escherichia coli) = DnaK (Escherichia coli) (UniProt P0A6Y8)
DnaK (Escherichia coli), sequence (P0A6Y8 2-638): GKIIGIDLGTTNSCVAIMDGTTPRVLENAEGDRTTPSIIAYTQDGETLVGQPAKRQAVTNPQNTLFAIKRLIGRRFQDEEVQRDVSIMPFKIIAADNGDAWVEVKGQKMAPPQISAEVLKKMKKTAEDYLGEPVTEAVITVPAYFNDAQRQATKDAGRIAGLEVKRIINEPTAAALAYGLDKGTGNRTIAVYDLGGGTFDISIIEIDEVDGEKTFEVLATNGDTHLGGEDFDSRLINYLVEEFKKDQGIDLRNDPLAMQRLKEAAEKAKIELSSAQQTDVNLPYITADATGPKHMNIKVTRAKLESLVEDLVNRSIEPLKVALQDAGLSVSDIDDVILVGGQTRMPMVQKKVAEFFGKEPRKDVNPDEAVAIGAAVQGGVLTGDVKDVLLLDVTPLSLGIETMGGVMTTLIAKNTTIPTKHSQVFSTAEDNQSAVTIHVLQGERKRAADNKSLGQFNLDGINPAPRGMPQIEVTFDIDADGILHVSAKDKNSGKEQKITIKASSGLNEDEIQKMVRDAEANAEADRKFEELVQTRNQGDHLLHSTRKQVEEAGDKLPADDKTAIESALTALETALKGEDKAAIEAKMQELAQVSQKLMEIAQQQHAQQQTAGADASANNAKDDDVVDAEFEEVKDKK

Hsp70 (Homo sapiens), sequence (P0DMV8 2-641): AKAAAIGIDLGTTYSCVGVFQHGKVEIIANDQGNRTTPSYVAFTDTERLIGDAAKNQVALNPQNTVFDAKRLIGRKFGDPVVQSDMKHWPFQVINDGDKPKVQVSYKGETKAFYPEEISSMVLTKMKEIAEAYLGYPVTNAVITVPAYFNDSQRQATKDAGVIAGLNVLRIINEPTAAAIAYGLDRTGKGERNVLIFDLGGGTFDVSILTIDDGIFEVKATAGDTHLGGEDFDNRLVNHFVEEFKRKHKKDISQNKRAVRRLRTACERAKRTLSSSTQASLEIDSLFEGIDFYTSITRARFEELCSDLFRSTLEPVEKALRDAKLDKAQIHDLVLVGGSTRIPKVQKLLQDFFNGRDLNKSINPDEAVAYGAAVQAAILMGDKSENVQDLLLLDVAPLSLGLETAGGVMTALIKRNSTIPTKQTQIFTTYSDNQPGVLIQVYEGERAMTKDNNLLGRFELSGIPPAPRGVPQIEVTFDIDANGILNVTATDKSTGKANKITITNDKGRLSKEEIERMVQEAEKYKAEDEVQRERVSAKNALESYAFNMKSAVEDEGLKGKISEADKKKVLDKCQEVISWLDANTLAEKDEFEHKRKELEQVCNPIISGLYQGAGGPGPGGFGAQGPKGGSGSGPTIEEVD
Bag3-ΔBag ΔBag, sequence (O95817 2-420, stated change not applied): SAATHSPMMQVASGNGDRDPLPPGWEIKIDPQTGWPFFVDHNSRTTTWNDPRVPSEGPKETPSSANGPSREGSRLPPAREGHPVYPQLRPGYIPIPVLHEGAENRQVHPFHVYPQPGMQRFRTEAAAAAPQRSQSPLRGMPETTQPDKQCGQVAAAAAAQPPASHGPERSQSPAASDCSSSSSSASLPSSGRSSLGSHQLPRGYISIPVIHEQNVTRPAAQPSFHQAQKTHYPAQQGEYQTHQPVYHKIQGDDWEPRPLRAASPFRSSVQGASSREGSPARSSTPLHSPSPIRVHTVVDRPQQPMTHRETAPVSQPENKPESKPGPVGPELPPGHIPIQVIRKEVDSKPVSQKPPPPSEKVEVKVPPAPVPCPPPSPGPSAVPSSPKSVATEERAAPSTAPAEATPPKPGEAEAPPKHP
Bag3-ΔBag ΔBag, sequence (O95817 499-575, stated change not applied): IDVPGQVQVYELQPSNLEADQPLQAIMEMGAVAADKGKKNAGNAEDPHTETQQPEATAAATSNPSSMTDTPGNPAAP
DnaJ, sequence (P08622 2-376): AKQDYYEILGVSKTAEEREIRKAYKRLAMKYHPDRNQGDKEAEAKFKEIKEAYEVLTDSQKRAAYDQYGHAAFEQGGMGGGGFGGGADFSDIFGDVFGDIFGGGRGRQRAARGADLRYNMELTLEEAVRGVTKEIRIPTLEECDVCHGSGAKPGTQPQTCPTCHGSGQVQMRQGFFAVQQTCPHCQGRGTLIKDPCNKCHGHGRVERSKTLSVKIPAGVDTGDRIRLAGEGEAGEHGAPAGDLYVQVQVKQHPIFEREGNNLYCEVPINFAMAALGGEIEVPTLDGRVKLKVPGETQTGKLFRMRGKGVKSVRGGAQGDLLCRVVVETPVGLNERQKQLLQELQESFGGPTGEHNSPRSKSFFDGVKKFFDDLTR

| Kd (Hsp70 (Homo sapiens)) | Kd (DnaK (Escherichia coli)) | Substance |
| --- | --- | --- |
| 10 µM | – | Bag3-ΔBag ΔBag (from UniProt O95817) |
| – | 3.6 µM | DnaJ (from UniProt P08622) |
